T1: Human OX40 (amino acids 29-170 of human OX40) (human, UniProt P43489 29-170)
T1 construct: range 29-170
T1 sequence (looked up): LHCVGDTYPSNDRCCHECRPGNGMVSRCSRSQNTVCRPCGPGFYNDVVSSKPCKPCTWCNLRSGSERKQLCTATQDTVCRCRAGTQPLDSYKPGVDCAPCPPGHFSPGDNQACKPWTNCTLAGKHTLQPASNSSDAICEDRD

T2: human OX40 (10481-H08H, Sino Biological), recombinant (human, UniProt P43489 29-216)
T2 construct: Bought protein
T2 sequence (looked up): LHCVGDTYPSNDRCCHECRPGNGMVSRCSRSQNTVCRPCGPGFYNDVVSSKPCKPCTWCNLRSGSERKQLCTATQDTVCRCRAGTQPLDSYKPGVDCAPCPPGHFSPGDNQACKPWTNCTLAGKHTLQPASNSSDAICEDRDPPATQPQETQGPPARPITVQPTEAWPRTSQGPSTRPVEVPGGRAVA

T3: human OX40 on the surface of cells (HEK293 cells expressing human OX40, jurkat cells engineered to express … (human, UniProt P43489 29-277))
T3 construct: whole, on cells; also called huOX40
T3 sequence (looked up): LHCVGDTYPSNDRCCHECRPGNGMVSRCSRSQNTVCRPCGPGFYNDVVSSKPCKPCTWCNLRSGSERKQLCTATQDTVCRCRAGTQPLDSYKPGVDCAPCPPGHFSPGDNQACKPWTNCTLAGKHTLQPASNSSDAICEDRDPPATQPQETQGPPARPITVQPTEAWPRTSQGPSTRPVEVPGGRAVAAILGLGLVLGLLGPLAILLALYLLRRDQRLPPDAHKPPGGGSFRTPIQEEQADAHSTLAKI

B1: prototype OX40 arm Fab (Fab, V domains shown)
VH: EVQLVESGGVVVQPGGSLRLSCAASGFTFDDYTMHWVRQAPGKGLEWVSLISWDGGSTYYADSVKGRFTISRDNSKNSLYLQMNSLRTEDTAVYYCARDNLWGYLTYFDYWGQGTLVTVSS
VL: QSVLTQPPSVSAAPGQKVTISCSGSSSNIGNNYVSWYQQLPGTAPKLLIYDNNKRPSGIPDRFSGSKSGTSATLGITGLQTGDEADYYCGTWDSSLTAYVFGGGTKLTVL
notes: Fab of the OX40 arm of the bispecific CD28-OX40 prototype; also called prototype arm
B2: L4 & L6 & L5 CD28 arm VHH (VHH-His) (VHH)
VHH: DVQLVESGGGVVQPGGSLRLSCAASGFTFSSYYMSWVRQAPGKGLEWVSTINTDGDFTSYADSVKGRFTISRDNAKNTLYLQMNSLRPEDTALYYCARARGPYSRGSQGHDYRGQGTLVTVSS
notes: Used as VHH-His in the crystal structure with CD28-His; also called L4, L6 & L5 CD28 VHH; not shown: His tag
B3: bispecific antibody L1 (anti-CD28 VHH x anti-OX40 Fab, human IgG1 Fc) (bispecific antibody)
light: not shown
heavy: not shown
chain: DVQLVESGGGVVQPGGSLRLSCAASGSFFSIDTMDWYRQAPGKQRELVTGVTSGGLTNYADSVKGRFTISIDNAKNTVYLQMNSLRPEDTALYYCSARIRTSGGGGWSTYWGQGTLVTVSSGGGGSDKTHTCPPCPAPEAAGGPSVFLFPPKPKDTLMISRTPEVTCVVVDVSHEDPEVKFNWYVDGVEVHNAKTKPREEQYNSTYRVVSVLTVLHQDWLNGKEYKCKVSNKALPAPIEKTISKAKGQPREPQVCTLPPSRDELTKNQVSLSCAVKGFYPSDIAVEWESNGQPENNYKTTPPVLDSDGSFFLVSKLTVDKSRWQQGNVFSCSVMHEALHNRFTQKSLSLSPG
notes: Three chains: anti-OX40 light chain (I), anti-OX40 heavy chain (II), anti-CD28 VHH-Fc chain (III); also called lead candidate L1
B4: bispecific antibody L3 (anti-CD28 VHH x anti-OX40 Fab, human IgG1 Fc) (bispecific antibody)
light: not shown
heavy: not shown
chain: B3 chain
notes: Three chains: anti-OX40 light chain (I), anti-OX40 heavy chain (II), anti-CD28 VHH-Fc chain (III); also called lead candidate L3
B5: bispecific antibody L2 (anti-CD28 VHH x anti-OX40 Fab, human IgG1 Fc) (bispecific antibody)
light: not shown
heavy: not shown
chain: B3 chain
notes: Three chains: anti-OX40 light chain (I), anti-OX40 heavy chain (II), anti-CD28 VHH-Fc chain (III); also called lead candidate L2
B6: bispecific antibody L4 (anti-CD28 VHH x anti-OX40 Fab, human IgG1 Fc) (bispecific antibody)
light: not shown
heavy: not shown
chain: DVQLVESGGGVVQPGGSLRLSCAASGFTFSSYYMSWVRQAPGKGLEWVSTINTDGDFTSYADSVKGRFTISRDNAKNTLYLQMNSLRPEDTALYYCARARGPYSRGSQGHDYRGQGTLVTVSSGGGGSDKTHTCPPCPAPEAAGGPSVFLFPPKPKDTLMISRTPEVTCVVVDVSHEDPEVKFNWYVDGVEVHNAKTKPREEQYNSTYRVVSVLTVLHQDWLNGKEYKCKVSNKALPAPIEKTISKAKGQPREPQVCTLPPSRDELTKNQVSLSCAVKGFYPSDIAVEWESNGQPENNYKTTPPVLDSDGSFFLVSKLTVDKSRWQQGNVFSCSVMHEALHNRFTQKSLSLSPG
notes: Three chains: anti-OX40 light chain (I), anti-OX40 heavy chain (II), anti-CD28 VHH-Fc chain (III); also called lead candidate L4
B7: bispecific antibody L6 (anti-CD28 VHH x anti-OX40 Fab, human IgG1 Fc) (bispecific antibody)
light: not shown
heavy: not shown
chain: B6 chain
notes: Three chains: anti-OX40 light chain (I), anti-OX40 heavy chain (II), anti-CD28 VHH-Fc chain (III); also called lead candidate L6
B8: bispecific antibody L5 (anti-CD28 VHH x anti-OX40 Fab, human IgG1 Fc) (bispecific antibody)
light: not shown
heavy: not shown
chain: B6 chain
notes: Three chains: anti-OX40 light chain (I), anti-OX40 heavy chain (II), anti-CD28 VHH-Fc chain (III); also called lead candidate L5

Molecular target: T1, Human OX40 (amino acids 29-170 of human …)
Assay: structure of the complex

binding result | Binder
binds | B1

Molecular target: T4, CD28-His (amino acids 19-136 of human CD28) (human, UniProt P10747 19-136)
T4 construct: Expressed in Expi293 cells, purified by HisTrap and SEC; also called Human CD28 Amino acids 19-136; not shown: His tag
Assay: complex formation, SEC, crystal structure

binding result | Binder
binds | B2

Molecular target: T5, human CD28 (CD28-3910H, Creative Bio Mart), recombinant (human, UniProt P10747 19-152)
T5 construct: Bought protein
T5 sequence (P10747 19-152 limits assumed): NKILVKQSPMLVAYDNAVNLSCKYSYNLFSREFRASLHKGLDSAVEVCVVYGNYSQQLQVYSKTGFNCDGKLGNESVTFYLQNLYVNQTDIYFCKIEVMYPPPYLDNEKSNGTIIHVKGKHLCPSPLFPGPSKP
Assay: SPR (Biacore 8K), bispecific captured by anti-human Fc, antigen as analyte, 1:1 model

Kd [nM] | Binder
3.6 | B3
3.3 | B4
3.23 | B5
11.9 | B6
11.3 | B7
9.99 | B8

Molecular target: T2, human OX40 (10481-H08H, Sino …)
Assay: as above

Kd [nM] | Binder
4.3 | B3
8.1 | B4
6.9 | B5
4.1 | B6
8.1 | B7
6.1 | B8

Molecular target: T6, cyno OX40 (internal production), recombinant (cynomolgus monkey)
T6 construct: also called Cynomolgus Monkey OX40
Assay: as above

Kd [nM] | Binder
2.9 | B3
15 | B4
4 | B5
3.7 | B6
20 | B7
3.3 | B8

Molecular target: T7, human FcRn (Immunitrack, ITF01-200) (human, UniProt P55899 24-297; P61769 21-119)
T7 construct: captured on a Series S Sensor Chip CAP; also called recombinant human FcRN
Assay: SPR (Biacore 8K), FcRn captured on CAP chip, bispecific as analyte, pH 6.0, steady state

Kd [nM] | Binder
924 | B3
990 | B4
988 | B5
574 | B6
745 | B7
714 | B8

Molecular target: T3, human OX40 on the surface of cells …
Assay: flow cytometry on HEK293 cells expressing human OX40; anti-human IgG Fc PE secondary; MFI

EC50 (read off the curve) [pM] | Binder
~700 | B3
~1000 | B4
~1000 | B5
~1000 | B6
~1000 | B7
~1000 | B8

From patent US20240209107A1 (Sanofi, published 2024)
